Reference: patent publication US12042530B2, “Target peptides for immunotherapy and diagnostics” (University of Virginia Patent Foundation, priority 2012, dated 2024)
Non-standard residues stand in square brackets, D forms with d. No end group written: not given here. pT = C[C@@H](OP(=O)(O)O)[C@H](N)C(=O)O; pS = N[C@@H](COP(=O)(O)O)C(=O)O

Experiments:
[1] = biological target: T1, HLA-B*0702 (Homo sapiens, UniProt P01889); assay: Phosphopeptides presented in association with class I molecules (HLA-B*0702) on cancer cells: melanoma and/or leukemia; design: key: Melanoma (M); Leukemia (L); L/M: Melanoma (M) and/or Leukemia (L); conditions: cancer type on which the HLA-B*0702 phosphopeptide is presented
T1 construct: endogenous in cells; host or cells: melanoma and/or leukemia cells

[2] = biological target: T2, HLA-B*0702 (HLA-B7) peptide complexes (Homo sapiens, UniProt P01889); assay: HLA-B*0702 phosphopeptides associated with leukemia samples (isolation of HLA-associated peptides); conditions: for Copies/cell class, ALL1: acute lymphoblastic leukemia sample ALL1; for Copies/cell class, HCL1: hairy cell leukemia sample HCL1; for Copies/cell class, BM: healthy bone marrow; for Copies/cell class, T Cell: healthy T cells; for Copies/cell class, B Cell: healthy B cells
T2 construct: endogenous in cells; host or cells: JY B-lymphoblastoid line; primary ALL, CLL, HCL, AML samples; bone marrow; healthy B and T cells
Description: To identify naturally processed tumor-associated phosphopeptides, HLA-A*0201 (HLA-A2) and HLA-B*0702 (HLA-B7) peptide complexes from four (4) chronic lymphocytic leukemia (CLL) tumor samples, a mantle cell lymphoma sample (MCL), one acute lymphoblastic leukemia (ALL), and an acute myeloid leukemia (AML) sample, in addition to healthy splenic T and B-cells and the cultured lymphoblastoid cell line JY were isolated. These efforts yielded 10 HLA-A2-restricted and 86 HLA-B7-restricted phosphopeptide antigens (see Tables 6 and 7).
All cell lines were grown at 37° C. with 5% CO2 in growth medium consisting of RPMI 1640 supplemented with 10% FCS and two mM L-glutamine. Blood or leukapheresis samples were taken from patients with high-burden leukemia in heparin. Tumor cells were recovered by layering the blood over density gradient (Ficoll) and collecting the tumor layer following centrifugation. The tumor was washed in tris-buffered saline (TBS). The purity of the tumor was assessed using flow cytometry and was >98% pure in all cases. For healthy T and B-cell populations, a normal spleen sample processed and tonsil sample was collected and lymphocytes released through mechanical disruption. Mononuclear cells were isolated using a density gradient and 10^9 T cells isolated using anti-CD19 or anti-CD3 microbeads (Miltenyi Biotec Inc., Auburn, California, United States of America) with purity >98% were obtained. Bone marrow sample was obtained from an elective orthopedic procedure and red cell-depleted using hypotonic lysis. This sample was not processed further.
Class I MHC molecules were immunoaffinity purified from the JY cell line or from primary tumor samples, and their associated peptides were extracted as previously described in Zarling et al., 2006. Approximately 1.2-14×10^9 cells were lysed in a solution containing 20 mM Tris-HCl (pH 8.0), 150 mM NaCl, 1% CHAPS, one mM PMSF, five μg/mL aprotinin, 10 μg/mL leupeptin, 10 μg/mL pepstatin A, 1 μg/ml calyculin A, and phosphatase inhibitor (cocktails I and II; Sigma-Aldrich). The mixture was subjected to centrifugation and the resulting supernatant was passed over protein A sepharose pre-loaded with the HLA-A2-specific antibody BB7.2 or HLA-B7-specific antibody MEL Peptides were eluted from the purified class I MHC molecules with 10% acetic acid.

Substance	L/M [1]	other results
316 (RPI[pS]PGLSY; listed as Homo sapiens) [compound 316]	L	–
278 (GPR[pS]ASLLSL; not fully specified; listed as Homo sapiens) [compound 278]	M	Copies/cell class, AML1 [2]: 3 (3 indicates 6-25 copies per cell)
390 (YPS[pS]PRKL; listed as Homo sapiens) [compound 390]	M	–
289 (KPQTRGK[pT]F; listed as Homo sapiens) [compound 289]	L	Copies/cell class, ALL1 [2]: 1 (1 indicates <1 copy/cell); Copies/cell class, HCL1 [2]: 1 (1 indicates <1 copy/cell)
333 (RPR[pS]PAARL; listed as Homo sapiens) [compound 333]	L	Copies/cell class, AML1 [2]: 1 (1 indicates <1 copy/cell)
318 (RPKPSS[pS]PV; listed as Homo sapiens) [compound 318]	L	Copies/cell class, CLL2 [2]: 1 (1 indicates <1 copy/cell); Copies/cell class, ALL1 [2]: 2 (2 indicates 1-5 copies/cell); Copies/cell class, BM [2]: 1 (1 indicates <1 copy/cell)
371 (SPK[pS]PGLKA; listed as Homo sapiens) [compound 371]	L	Copies/cell class, AML1 [2]: 1 (1 indicates <1 copy/cell); Copies/cell class, CLL2 [2]: 3 (3 indicates 6-25 copies per cell); Copies/cell class, CLL4 [2]: 3 (3 indicates 6-25 copies per cell); Copies/cell class, JY [2]: 4 (4 indicates >25 copies per cell); Copies/cell class, ALL1 [2]: 1 (1 indicates <1 copy/cell); Copies/cell class, HCL1 [2]: 2 (2 indicates 1-5 copies/cell); Copies/cell class, T Cell [2]: 1 (1 indicates <1 copy/cell); Copies/cell class, BM [2]: 1 (1 indicates <1 copy/cell)
366 (RVR[pS]PTRSP; listed as Homo sapiens) [compound 366]	L	Copies/cell class, AML1 [2]: 2 (2 indicates 1-5 copies/cell)
324 (RPQRAT[pS]NVF; listed as Homo sapiens) [compound 324]	L	Copies/cell class, AML1 [2]: 2 (2 indicates 1-5 copies/cell); Copies/cell class, B Cell [2]: 2 (2 indicates 1-5 copies/cell); Copies/cell class, T Cell [2]: 3 (3 indicates 6-25 copies per cell)
377 (SPR[pS]PGKPM; listed as Homo sapiens) [compound 377]	L	Copies/cell class, AML1 [2]: 2 (2 indicates 1-5 copies/cell); Copies/cell class, CLL2 [2]: 1 (1 indicates <1 copy/cell); Copies/cell class, CLL4 [2]: 2 (2 indicates 1-5 copies/cell); Copies/cell class, JY [2]: 4 (4 indicates >25 copies per cell); Copies/cell class, ALL1 [2]: 1 (1 indicates <1 copy/cell); Copies/cell class, HCL1 [2]: 2 (2 indicates 1-5 copies/cell)
307 (RPA[pS]AGAML; listed as Homo sapiens) [compound 307]	L	Copies/cell class, AML1 [2]: 1 (1 indicates <1 copy/cell); Copies/cell class, CLL2 [2]: 2 (2 indicates 1-5 copies/cell); Copies/cell class, JY [2]: 4 (4 indicates >25 copies per cell); Copies/cell class, ALL1 [2]: 4 (4 indicates >25 copies per cell); Copies/cell class, HCL1 [2]: 2 (2 indicates 1-5 copies/cell); Copies/cell class, B Cell [2]: 1 (1 indicates <1 copy/cell); Copies/cell class, T Cell [2]: 3 (3 indicates 6-25 copies per cell); Copies/cell class, BM [2]: 1 (1 indicates <1 copy/cell)
266 (APRKG[pS]FSALM; listed as Homo sapiens) [compound 266]	M	–
347 (RPV[pS]PFQEL; listed as Homo sapiens) [compound 347]	L	Copies/cell class, AML1 [2]: 2 (2 indicates 1-5 copies/cell); Copies/cell class, CLL2 [2]: 2 (2 indicates 1-5 copies/cell); Copies/cell class, CLL4 [2]: 2 (2 indicates 1-5 copies/cell); Copies/cell class, JY [2]: 4 (4 indicates >25 copies per cell); Copies/cell class, ALL1 [2]: 3 (3 indicates 6-25 copies per cell); Copies/cell class, HCL1 [2]: 3 (3 indicates 6-25 copies per cell); Copies/cell class, B Cell [2]: 3 (3 indicates 6-25 copies per cell); Copies/cell class, T Cell [2]: 3 (3 indicates 6-25 copies per cell)
272 (FRR[pS]PTKSSL; listed as Homo sapiens) [compound 272]	L	Copies/cell class, AML1 [2]: 2 (2 indicates 1-5 copies/cell)
353 (RRL[pS]GPLHTL; listed as Homo sapiens) [compound 353]	M	–
268 (APR[pS]PPPSRP; listed as Homo sapiens) [compound 268]	M	–
375 (SPRR[pS]RSI[pS]L; listed as Homo sapiens) [compound 375]	L/M	–
362 (RSR[pS]PRPAL; listed as Homo sapiens) [compound 362]	M	–
292 (KPR[pS]PPRAL; listed as Homo sapiens) [compound 292]	L/M	–
372 (SPK[pS]PTAAL; listed as Homo sapiens) [compound 372]	M	–
340 (RPRPV[pS]PSSL; listed as Homo sapiens) [compound 340]	L	–
326 (RPRG[pS]QSLL; listed as Homo sapiens) [compound 326]	M	–
286 (KPP[pS]PSPIEM; listed as Homo sapiens) [compound 286]	L	–
293 (KPR[pS]PPRALV; listed as Homo sapiens) [compound 293]	M	–
301 (MPRQP[pS]ATRL; listed as Homo sapiens) [compound 301]	M	–
345 (RPS[pT]PKSDSEL; listed as Homo sapiens) [compound 345]	L	–

Substance	L/M [1]	other results
335 (RPR[pS]PPPRAP; listed as Homo sapiens) [compound 335]	M	–
271 (FPH[pS]LLSVI; listed as Homo sapiens) [compound 271]	M	–
299 (LPK[pS]PPYTAF; listed as Homo sapiens) [compound 299]	M	–
298 (LPIFSRL[pS]I; listed as Homo sapiens) [compound 298]	L	–
355 (RR[pS][pS]FLQVF; listed as Homo sapiens) [compound 355]	M	–
279 (HPR[pS]PTPTL; listed as Homo sapiens) [compound 279]	M	–
275 (GAQPGRH[pS]V; listed as Homo sapiens) [compound 275]	M	–
373 (SPRER[pS]PAL; listed as Homo sapiens) [compound 373]	M	–
294 (KPR[pS]PPRALVL; listed as Homo sapiens) [compound 294]	M	–
369 (SPFKRQL[pS]L; listed as Homo sapiens) [compound 369]	M	–
380 (SPRTPV[pS]PVKF; listed as Homo sapiens) [compound 380]	M	–
329 (RPRR[pS]STQL; listed as Homo sapiens) [compound 329]	M	–
381 (SPR[pT]PV[pS]PVKF; listed as Homo sapiens) [compound 381]	M	–
341 (RPSGRRE[pS]L; listed as Homo sapiens) [compound 341]	M	–
354 (RRP[pS]YTLGM; listed as Homo sapiens) [compound 354]	M	–
384 (SPVVHQ[pS]L; listed as Homo sapiens) [compound 384]	M	–
332 (RPRSL[pS]SPTVTL; listed as Homo sapiens) [compound 332]	M	–
280 (HPRSP[pT]PTL; listed as Homo sapiens) [compound 280]	M	–
311 (RPA[pT]PTSQF; listed as Homo sapiens) [compound 311]	M	–
276 (GPRSA[pS]LL[pS]L; listed as Homo sapiens) [compound 276]	L	–
300 (LPRGS[pS]PSVL; listed as Homo sapiens) [compound 300]	M	–
357 (RR[pS]SQSWSL; listed as Homo sapiens) [compound 357]	M	–
364 (RTF[pS]PTYGL; listed as Homo sapiens) [compound 364]	M	–
290 (KPRPPPL[pS]P; listed as Homo sapiens) [compound 290]	M	–
365 (RTR[pS]PSPTL; listed as Homo sapiens) [compound 365]	M	–
281 (KAR[pS]PGRAL; listed as Homo sapiens) [compound 281]	M	–
